Test results taken from PMC11078399.
Substitutions are numbered along the chain they refer to. Names may count otherwise.

Target: T1, Fzo1 (yeast mitofusin), wild type (S. cerevisiae) (UniProt P38297)
T1 sequence: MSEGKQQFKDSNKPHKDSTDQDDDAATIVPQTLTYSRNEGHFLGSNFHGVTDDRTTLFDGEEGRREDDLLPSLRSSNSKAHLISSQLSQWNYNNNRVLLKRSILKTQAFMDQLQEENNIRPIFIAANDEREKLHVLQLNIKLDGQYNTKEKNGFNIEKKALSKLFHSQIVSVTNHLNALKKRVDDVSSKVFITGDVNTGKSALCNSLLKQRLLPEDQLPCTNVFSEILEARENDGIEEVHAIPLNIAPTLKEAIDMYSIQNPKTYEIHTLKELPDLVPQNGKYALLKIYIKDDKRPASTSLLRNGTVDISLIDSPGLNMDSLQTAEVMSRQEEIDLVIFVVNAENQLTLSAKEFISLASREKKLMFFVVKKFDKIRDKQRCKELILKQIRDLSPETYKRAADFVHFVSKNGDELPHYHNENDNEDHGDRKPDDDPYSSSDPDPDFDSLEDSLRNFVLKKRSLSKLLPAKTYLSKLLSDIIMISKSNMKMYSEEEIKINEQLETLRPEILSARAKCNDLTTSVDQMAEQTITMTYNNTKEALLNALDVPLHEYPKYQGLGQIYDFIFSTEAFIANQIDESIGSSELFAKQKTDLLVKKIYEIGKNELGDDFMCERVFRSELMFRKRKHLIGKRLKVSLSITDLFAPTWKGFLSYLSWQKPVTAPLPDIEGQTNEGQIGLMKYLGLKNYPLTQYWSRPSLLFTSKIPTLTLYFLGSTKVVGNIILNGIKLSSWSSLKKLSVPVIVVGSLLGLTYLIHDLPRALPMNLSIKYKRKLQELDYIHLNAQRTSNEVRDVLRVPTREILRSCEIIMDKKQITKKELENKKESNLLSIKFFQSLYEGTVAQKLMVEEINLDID

B1: Fzo1 S201N (GTPase domain mutant) (natural protein)
chain: T1 sequence with S201N
ex vivo PerMit contact assay with mitochondria from pex34Δ cells: decrease of specific mitochondrial attachment to peroxisome beads with FZO1 S201N against WT FZO1 mitochondria: 17%
